Laboratory results published in patent publication US20230301998.
Where a chain is given by its changes, count along the chain named.

How the values were obtained:
V5-tagged IFI204 WT = tested on: T1, V5-tagged IFI204 WT
T1 sequence: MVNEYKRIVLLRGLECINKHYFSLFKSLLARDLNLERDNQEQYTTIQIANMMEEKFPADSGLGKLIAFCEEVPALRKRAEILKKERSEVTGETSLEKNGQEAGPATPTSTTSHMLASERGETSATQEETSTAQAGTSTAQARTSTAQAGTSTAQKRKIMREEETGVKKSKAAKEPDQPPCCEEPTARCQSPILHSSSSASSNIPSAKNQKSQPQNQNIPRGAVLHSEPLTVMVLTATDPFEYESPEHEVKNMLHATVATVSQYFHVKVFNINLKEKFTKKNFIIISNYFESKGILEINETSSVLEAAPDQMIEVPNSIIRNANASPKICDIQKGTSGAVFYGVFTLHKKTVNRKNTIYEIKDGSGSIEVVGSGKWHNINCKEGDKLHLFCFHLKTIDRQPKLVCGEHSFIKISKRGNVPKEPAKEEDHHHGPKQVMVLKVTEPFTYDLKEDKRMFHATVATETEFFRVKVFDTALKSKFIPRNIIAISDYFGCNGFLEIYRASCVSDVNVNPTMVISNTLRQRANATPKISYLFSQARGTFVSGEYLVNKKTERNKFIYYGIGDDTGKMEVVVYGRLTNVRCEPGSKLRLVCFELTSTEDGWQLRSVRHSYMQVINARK

V5-tagged IFI204 R12A = tested on: T2, V5-tagged IFI204 R12A
T2 sequence: T1 sequence with R12A

[1] = tested on: T3, V5-tagged IFI204 RR12/538AA
T3 sequence: T1 sequence with R12A, R538A

V5-tagged IFI204 R538A = tested on: T4, V5-tagged IFI204 R538A
T4 sequence: T1 sequence with R538A

For recombinant active PRMT5 plus WDR77, the “in vitro methylation (3H-SAM, autoradiography)” value (“in vitro methylation” below) (V5-tagged IFI204 WT) was “IFI204 WT protein was methylated by PRMT5 /WDR77”, the “in vitro methylation” value (V5-tagged IFI204 R12A) was “Immunopurified WT IFI204, but not a mutant form lacking either Arg12, Arg538 or both, was methylated in vitro by recombinant PRMT5” and the “in vitro methylation” value [1] was “Immunopurified WT IFI204, but not a mutant form lacking either Arg12, Arg538 or both, was methylated in vitro by recombinant PRMT5”. The “in vitro methylation” value (V5-tagged IFI204 R538A) was “Immunopurified WT IFI204, but not a mutant form lacking either Arg12, Arg538 or both, was methylated in vitro by recombinant PRMT5”.
